Test results taken from IntAct's records for PubMed 35512704.

B1: Mothers against decapentaplegic homolog 4 (Homo sapiens), Q13485 (parent)
chain: MDNMSITNTPTSNDACLSIVHSLMCHRQGGESETFAKRAIESLVKKLKEKKDELDSLITAITTNGAHPSKCVTIQRTLDGRLQVAGRKGFPHVIYARLWRWPDLHKNELKHVKYCQYAFDLKCDSVCVNPYHYERVVSPGIDLSGLTLQSNAPSSMMVKDEYVHDFEGQPSLSTEGHSIQTIQHPPSNRASTETYSTPALLAPSESNATSTANFPNIPVASTSQPASILGGSHSEGLLQIASGPQPGQQQNGFTGQPATYHHNSTTTWTGSRTAPYTPNLPHHQNGHLQHHPPMPPHPGHYWPVHNELAFQPPISNHPAPEYWCSIAYFEMDVQVGETFKVPSSCPIVTVDGYVDPSGGDRFCLGQLSNVHRTEAIERARLHIGKGVQLECKGEGDVWVRCLSDHAVFVQSYYLDREAGRAPGDAVHKIYPSAYIKVFDLRQCHRQMQQQAATAQAAAAAQAAAVAGNIPGPGSVGGIAPAISLSAAAGIGVDDLRRLCILRMSFVKGWGPDYPRQSIKETPCWIEIHLHRALQLLDEVLHTMPIADPQPLD
partner: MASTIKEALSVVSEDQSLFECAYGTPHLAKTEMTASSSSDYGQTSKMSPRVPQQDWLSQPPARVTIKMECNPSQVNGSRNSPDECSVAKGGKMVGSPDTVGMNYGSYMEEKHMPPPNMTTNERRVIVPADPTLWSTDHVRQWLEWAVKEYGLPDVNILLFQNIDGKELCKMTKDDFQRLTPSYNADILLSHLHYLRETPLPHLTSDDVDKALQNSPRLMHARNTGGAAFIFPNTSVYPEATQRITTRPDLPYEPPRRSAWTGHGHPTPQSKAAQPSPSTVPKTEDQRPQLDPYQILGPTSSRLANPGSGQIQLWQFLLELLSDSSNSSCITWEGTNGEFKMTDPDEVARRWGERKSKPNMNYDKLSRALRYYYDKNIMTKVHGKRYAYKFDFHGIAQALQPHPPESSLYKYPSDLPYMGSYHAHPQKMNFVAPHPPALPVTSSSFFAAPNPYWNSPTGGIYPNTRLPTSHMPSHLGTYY
B2: Mothers against decapentaplegic homolog 4 (Homo sapiens), Q13485 (parent)
chain: B1 chain
partner: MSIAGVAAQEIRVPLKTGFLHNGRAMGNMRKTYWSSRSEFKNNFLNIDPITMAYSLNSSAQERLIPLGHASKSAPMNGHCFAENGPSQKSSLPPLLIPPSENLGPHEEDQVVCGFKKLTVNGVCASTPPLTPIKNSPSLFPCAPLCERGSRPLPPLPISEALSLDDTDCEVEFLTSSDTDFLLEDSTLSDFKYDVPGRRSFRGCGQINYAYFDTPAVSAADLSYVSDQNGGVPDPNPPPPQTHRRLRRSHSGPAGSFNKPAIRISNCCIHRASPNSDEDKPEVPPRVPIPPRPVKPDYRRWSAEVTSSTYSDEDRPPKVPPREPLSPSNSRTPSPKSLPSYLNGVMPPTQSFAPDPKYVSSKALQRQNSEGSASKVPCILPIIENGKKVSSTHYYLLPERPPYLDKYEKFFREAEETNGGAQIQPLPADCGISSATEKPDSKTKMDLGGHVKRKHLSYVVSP
B3: Mothers against decapentaplegic homolog 4 (Homo sapiens), Q13485 (parent)
chain: B1 chain
partner: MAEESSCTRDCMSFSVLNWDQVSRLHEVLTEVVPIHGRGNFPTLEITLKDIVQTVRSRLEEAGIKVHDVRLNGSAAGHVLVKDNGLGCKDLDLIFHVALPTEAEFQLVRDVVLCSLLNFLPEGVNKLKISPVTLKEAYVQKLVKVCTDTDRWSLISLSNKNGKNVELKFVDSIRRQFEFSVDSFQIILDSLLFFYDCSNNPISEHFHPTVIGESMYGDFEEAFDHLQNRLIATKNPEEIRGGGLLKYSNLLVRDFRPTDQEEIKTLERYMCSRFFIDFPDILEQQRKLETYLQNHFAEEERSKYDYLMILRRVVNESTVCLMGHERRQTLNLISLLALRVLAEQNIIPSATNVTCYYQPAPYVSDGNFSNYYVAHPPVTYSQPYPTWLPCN
B4: Mothers against decapentaplegic homolog 4 (Homo sapiens), Q13485 (parent)
chain: B1 chain
partner: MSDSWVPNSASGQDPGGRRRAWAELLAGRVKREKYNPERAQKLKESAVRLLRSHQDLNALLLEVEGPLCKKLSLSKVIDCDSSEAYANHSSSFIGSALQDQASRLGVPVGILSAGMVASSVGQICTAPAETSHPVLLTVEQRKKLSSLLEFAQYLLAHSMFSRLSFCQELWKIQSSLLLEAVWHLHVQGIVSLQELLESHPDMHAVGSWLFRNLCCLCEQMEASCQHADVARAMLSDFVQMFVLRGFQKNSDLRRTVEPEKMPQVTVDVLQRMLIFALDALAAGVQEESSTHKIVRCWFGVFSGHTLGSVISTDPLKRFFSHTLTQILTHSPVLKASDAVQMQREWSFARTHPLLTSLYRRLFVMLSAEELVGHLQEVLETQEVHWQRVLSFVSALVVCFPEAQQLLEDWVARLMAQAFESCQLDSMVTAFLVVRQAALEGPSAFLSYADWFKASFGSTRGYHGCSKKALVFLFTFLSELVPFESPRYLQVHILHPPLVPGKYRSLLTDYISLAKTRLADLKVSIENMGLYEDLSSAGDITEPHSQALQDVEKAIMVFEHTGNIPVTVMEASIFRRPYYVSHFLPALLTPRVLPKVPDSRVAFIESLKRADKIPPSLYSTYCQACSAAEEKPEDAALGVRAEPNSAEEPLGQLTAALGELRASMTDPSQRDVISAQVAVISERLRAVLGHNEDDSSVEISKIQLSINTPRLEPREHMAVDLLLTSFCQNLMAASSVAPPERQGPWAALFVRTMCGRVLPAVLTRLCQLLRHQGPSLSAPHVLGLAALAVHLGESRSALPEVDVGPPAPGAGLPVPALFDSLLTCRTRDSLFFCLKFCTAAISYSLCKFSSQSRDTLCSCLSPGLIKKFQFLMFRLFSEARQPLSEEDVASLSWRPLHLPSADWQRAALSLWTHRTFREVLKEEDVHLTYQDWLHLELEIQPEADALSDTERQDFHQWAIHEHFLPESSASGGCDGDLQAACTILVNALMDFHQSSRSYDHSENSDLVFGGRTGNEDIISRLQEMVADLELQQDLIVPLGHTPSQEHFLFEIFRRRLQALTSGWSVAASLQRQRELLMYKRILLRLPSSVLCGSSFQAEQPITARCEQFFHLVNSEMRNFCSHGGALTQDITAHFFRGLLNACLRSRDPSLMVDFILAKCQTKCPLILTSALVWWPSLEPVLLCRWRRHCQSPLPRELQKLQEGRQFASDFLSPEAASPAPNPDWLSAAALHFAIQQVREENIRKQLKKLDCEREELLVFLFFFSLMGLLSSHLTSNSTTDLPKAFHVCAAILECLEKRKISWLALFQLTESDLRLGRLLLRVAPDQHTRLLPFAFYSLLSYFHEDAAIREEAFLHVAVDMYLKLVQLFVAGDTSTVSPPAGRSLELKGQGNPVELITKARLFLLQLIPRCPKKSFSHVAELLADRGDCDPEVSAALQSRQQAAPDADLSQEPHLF

Variants of: B1
Conditions: with erg_human ERG
With G386D the “effect of a mutation on the interaction” value was “with no effect”.

Variants of: B1
Conditions: with erg_human ERG
Remark: another data set of the same source
With R361C the “effect of a mutation on the interaction” value was “with no effect”.

Variants of: B1
Conditions: with erg_human ERG
Remark: another data set of the same source
R361H was tested, and the “effect of a mutation on the interaction” value was “with no effect”.

Variants of: B2
Conditions: with errfi_human ERRFI1, Q9UJM3
In the case of D351H, the “effect of a mutation on the interaction” value is reported as “with no effect”.

Variants of: B2
Conditions: with errfi_human ERRFI1, Q9UJM3
Remark: another data set of the same source
G386D was tested, and the “effect of a mutation on the interaction” value was “with no effect”.

Variants of: B2
Conditions: with errfi_human ERRFI1, Q9UJM3
Remark: another data set of the same source
In the case of R361C, the “effect of a mutation on the interaction” value is reported as “with no effect”.

Variants of: B2
Conditions: with errfi_human ERRFI1, Q9UJM3
Remark: another data set of the same source
With R361H the “effect of a mutation on the interaction” value was “with no effect”.

Variants of: B3
Conditions: with tet5c_human TENT5C
In the case of D351H, the “effect of a mutation on the interaction” value is reported as “with no effect”.

Variants of: B3
Conditions: with tet5c_human TENT5C
Remark: another data set of the same source
With G386D the “effect of a mutation on the interaction” value was “with no effect”.

Variants of: B3
Conditions: with tet5c_human TENT5C
Remark: another data set of the same source
For R361C, the “effect of a mutation on the interaction” value was “with no effect”.

Variants of: B3
Conditions: with tet5c_human TENT5C
Remark: another data set of the same source
R361H was tested, and the “effect of a mutation on the interaction” value was “with no effect”.

Variants of: B4
Conditions: with fanca_human FANCA
D351H was tested, and the “effect of a mutation on the interaction” value was “with no effect”.
